Reference: article PMC3515676

How the values were obtained:
Assay in all cases: purified protein
Format in all cases: biochemical, Homo sapiens
Conditions in all cases: 14 μM PAP[35S], 50 mM Mops pH 7.0, 37 °C
[1] = substrate: C[C@H](CCC(=O)NCC(=O)O)[C@H]1CC[C@H]2[C@@H]3[C@H](O)C[C@@H]4C[C@H](O)CC[C@]4(C)[C@H]3CC[C@]12C
[2] = substrate: C[C@H](CCC(=O)O)[C@H]1CC[C@H]2[C@@H]3CC[C@@H]4C[C@H](O)CC[C@]4(C)[C@H]3CC[C@]12C
[3] = substrate: C[C@H](CCC(=O)O)[C@H]1CC[C@H]2[C@@H]3[C@H](O)C[C@@H]4C[C@H](O)CC[C@]4(C)[C@H]3CC[C@]12C
[4] = substrate: C[C@H](CCCO)[C@H]1CC[C@H]2[C@@H]3[C@H](O)C[C@H]4C[C@H](O)CC[C@]4(C)[C@H]3C[C@H](O)[C@]12C

B1: human SULT2A1 (hSULT2A1) (Homo sapiens) (protein)
chain: MSDDFLWFEGIAFPTMGFRSETLRKVRDEFVIRDEDVIILTYPKSGTNWLAEILCLMHSKGDAKWIQSVPIWERSPWVESEIGYTALSETESPRLFSSHLPIQLFPKSFFSSKAKVIYLMRNPRDVLVSGYFFWKNMKFIKKPKSWEEYFEWFCQGTVLYGSWFDHIHGWMPMREEKNFLLLSYEELKQDTGRTIEKICQFLGKTLEPEELNLILKNSSFQSMKENKMSNYSLLSVDYVVDKAQLLRKGVSGDWKNHFTVAQAEDFDKLFQEKMADLPRELFPWE
Question: Which results are given for B1?
Answer: Km [1]: 36.73 ± 2.47 µM; Vmax [1]: 0.0038 µmol/min/mg; Km [2]: 8.36 ± 0.39 µM; Vmax [2]: 0.036 µmol/min/mg; Km [3]: 42.30 ± 2.97 µM; Vmax [3]: 0.00395 µmol/min/mg; Km [4]: 49.38 ± 4.62 µM; Vmax [4]: 0.00549 µmol/min/mg
